Data taken from the supplement of paper PMC7877785.
± gives the uncertainty stated by the source.

Assay: self-splicing fitness, log relative to wild type (ln ratio); higher = more splicing; Tetrahymena group I intron in knt gene, E. coli kanamycin selection, DiMSum; sequences stand for … in CUCUCU…GGAGGGAAAAGUUAUCAGGCAUGCACCUGGUAGCUAGUCUUUAAACCAAUAGAUUGCAUCGGUUUAAAAGGCAAGACCGUCAAAUUGCGGGAAAGGGGUCAACAGCCGUUCAGUACCAAGUCUCAGGGGAAACUUUGAGAUGGCCUUGCAAAGGGUAUGGUAAUAAGCUGACGGACAUGGUCCUAACCACGCAGCCAAGUCCUAAGUCAACAGAUCUUCUGUUGAUAUGGAUGCAGUUCACAGACUAAAUGUCGGUCGGGGAAGAUGUAUUCUUCUCAUAAGAUAUAGUCGGACCUCUCCUUAAUGGGAGCUAGCGGAUGAAGUGAUGCAACACUGGAGCCGCUGGGAACUAAUUUGUAUGCGAAAGUAUAUUGAUUAGUUUUGGAGUACUCGUGGUCG
In short: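 DiMSum derived fitness as the error-weighted combination of fold changes across replicates, kanamycin versus no kanamycin, normalised to wild type. E. coli BL21(DE3) held the library, which randomised all eight P1ex-region intron nucleotides within the knt kanamycin-resistance gene on pET-22b(+). Six replicate transformations grew overnight at 37°C or 30°C on LB agar with or without 25 μg/mL kanamycin, also containing 100 μg/mL carbenicillin, 50 μM IPTG and 0.2% rhamnose, and pooled colonies were amplicon-sequenced on an Illumina HiSeq 2500.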

| Sequence | self-splicing fitness (ln) (30 °C) | self-splicing fitness (ln) (37 °C) |
| --- | --- | --- |
| UCAAAGCAAUAUUACGAGAG | -3.08 ± 0.2 | -2.21 ± 0.21 |
| CAUGAGCAAUAUUACGCUAC |  | -2.29 ± 0.49 |
| AUCGAGCAAUAUUACGAAGA | -1.74 ± 0.44 | -1.65 ± 0.38 |
| UCGUAGCAAUAUUACGCAUA | -1.57 ± 0.16 | -1.34 ± 0.21 |
| AAGUAGCAAUAUUACGGCGU | -0.422 ± 0.091 | 0.27 ± 0.11 |
| UUUAAGCAAUAUUACGUUAG | -1.75 ± 0.13 | -0.995 ± 0.14 |
| GCAUAGCAAUAUUACGUGAU | -1.64 ± 0.066 | -0.927 ± 0.08 |
| UCUAAGCAAUAUUACGCGUC | -3.36 ± 0.24 | -2.01 ± 0.18 |
| UUCCAGCAAUAUUACGCACC | -2.48 ± 0.3 | -1.55 ± 0.26 |
| UAGGAGCAAUAUUACGAUUG | -1.85 ± 0.15 | -0.617 ± 0.16 |
| UAUCAGCAAUAUUACGAGAA | -1.22 ± 0.16 | -0.559 ± 0.13 |
| CCGCAGCAAUAUUACGUUUC | -3.08 ± 0.31 | -2.93 ± 0.29 |
| CUAAAGCAAUAUUACGCAUC | -4.03 ± 0.35 |  |
| ACAAAGCAAUAUUACGACCA | -0.633 ± 0.12 | -0.407 ± 0.13 |
| ACGAAGCAAUAUUACGUCCG | -0.464 ± 0.097 | -0.122 ± 0.12 |
| UUCGAGCAAUAUUACGGAGU |  | -2.26 ± 0.32 |
| CGCGAGCAAUAUUACGUUUG | -4.03 ± 0.21 | -1.91 ± 0.18 |
| UGCUAGCAAUAUUACGACAA | -1.15 ± 0.13 | -0.207 ± 0.14 |
| GUUGAGCAAUAUUACGAUGC | -2.24 ± 0.49 | -2.24 ± 0.45 |
| GAUAAGCAAUAUUACGCCAC | -3.11 ± 0.44 | -2.13 ± 0.36 |
| UAUAAGCAAUAUUACGCUGC | -3.35 ± 0.32 |  |
| UCAUAGCAAUAUUACGCAAU | -3.1 ± 0.19 | -2.84 ± 0.28 |
| AAGGAGCAAUAUUACGAGGU | -3.6 ± 0.23 | -3.6 ± 0.47 |
| CCGUAGCAAUAUUACGACCG | -0.302 ± 0.12 | 0.31 ± 0.2 |
| CCUCAGCAAUAUUACGCUGA | -2.75 ± 0.35 | -3.12 ± 0.47 |

| Sequence | self-splicing fitness (ln) (30 °C) | self-splicing fitness (ln) (37 °C) |
| --- | --- | --- |
| AACUAGCAAUAUUACGAUGG | -2.49 ± 0.17 | -0.739 ± 0.14 |
| GUGCAGCAAUAUUACGAAGC | -1.05 ± 0.14 | -1.36 ± 0.19 |
| ACUAAGCAAUAUUACGUCGC | -3.12 ± 0.18 | -1.86 ± 0.2 |
| CUAUAGCAAUAUUACGGGUG | -0.36 ± 0.061 | 0.369 ± 0.085 |
| AGGUAGCAAUAUUACGUACC | -1.99 ± 0.028 | -1.14 ± 0.042 |
| GCGCAGCAAUAUUACGGAGG | -1.63 ± 0.12 | -0.473 ± 0.11 |
| UACCAGCAAUAUUACGGGUU | -2.21 ± 0.085 | -1.46 ± 0.1 |
| GUGGAGCAAUAUUACGCCUC | -3.07 ± 0.3 | -1 ± 0.25 |
| UGUCAGCAAUAUUACGUAAC | -2.38 ± 0.24 | 0.145 ± 0.26 |
| AUGCAGCAAUAUUACGUUGA | -2.97 ± 0.14 | -2.41 ± 0.12 |
| UGACAGCAAUAUUACGGCGU | -2.71 ± 0.15 | -1.67 ± 0.16 |
| CAGAAGCAAUAUUACGGCCG | -0.0187 ± 0.082 | -0.102 ± 0.14 |
| CUAUAGCAAUAUUACGUACU | -3.66 ± 0.47 |  |
| AGGGAGCAAUAUUACGUGUA | -3.24 ± 0.35 | -3.06 ± 0.31 |
| UCGAAGCAAUAUUACGAGAA | -1.94 ± 0.41 | -1.23 ± 0.3 |
| CUAUAGCAAUAUUACGGUGA | -3.35 ± 0.18 | -2.59 ± 0.23 |
| UGCCAGCAAUAUUACGUGGG | -3.88 ± 0.13 | -2.74 ± 0.14 |
| CGAAAGCAAUAUUACGAUUU | -2.12 ± 0.09 | -0.815 ± 0.099 |
| AAGGAGCAAUAUUACGCUUU | -3.83 ± 0.32 | -2.93 ± 0.38 |
| CGAUAGCAAUAUUACGAGAG | -2.05 ± 0.2 | -2.66 ± 0.26 |
| CCUAAGCAAUAUUACGCCAU | -4.47 ± 0.46 | -2.48 ± 0.34 |
| CUGAAGCAAUAUUACGCUCC | -2.74 ± 0.34 |  |
| GGGCAGCAAUAUUACGCGCG | -0.63 ± 0.13 | -0.682 ± 0.14 |
| UUAUAGCAAUAUUACGAAGU | -3.61 ± 0.45 | -2.44 ± 0.28 |
| CAUGAGCAAUAUUACGACUA | -2.06 ± 0.27 |  |
